Data taken from patent US20250242023A1 (published 2025).

T1: mesothelin (MsIn), murine peptide on H-2Db (mouse)
T1 peptide: GQKMNAQAI

B1: 1045 TCR (TCR, V domains shown)
Valpha: GDSVTQTEGPVTVSESESLIINCTYSATSIAYPNLFWYVRYPGEGLQLLLKVITAGQKGSSRGFEATYNKETTSFHLQKASVQESDSAVYYCALGLDYANKMIFGLGTILRVRP
Vbeta: DTTVKQNPRYKLARVGKPVNLICSQTMNHDTMYWYQKKPNQAPKLLLFYYDKILNREADTFEKFQSSRPNNSFCSLYIGSAGLEYSAMYLCASSNPQDTQYFGPGTRLLVL
B2: 7431 TCR (TCR, V domains shown)
Valpha: GDSVTQTEGPVTVSESESLIINCTYSATSIAYPNLFWYVRYPGEGLQLLLKVITAGQKGSSRGFEATYNKETTSFHLQKASVQESDSAVYYCALGPDTNAYKVIFGKGTHLHVLP
Vbeta: DTTVKQNPRYKLARVGKPVNLICSQTMNHDTMYWYQKKPNQAPKLLLFYYDKILNREADTFEKFQSSRPNNSFCSLYIGSAGLEYSAMYLCASSRGANTEVFFGKGTRLTVV

Key:
[1] = molecular target: T1, mesothelin (MsIn), murine peptide on …; experiment: multimer staining
Text: Flow cytometry: Mononuclear cells were stained with MsIn₄₀₆₋₄₁₄:H-2D^b-APC or -BV421 tetramer (1:100) in the presence of 1:100 Fc block (αCD16/32, Tonbo), and monoclonal antibodies diluted 1:100 in FACs Buffer (2% BSA+PBS) or (2.5% FBS+PBS+1% NaN₃) and specific to CD45 (30F-11, Biolegend), CD8a (53-6.7, Tonbo), CD44 (IM7, BD Biosciences), CD62L (MEL-14, Biolegend), CD69 (H1.2F3, BD Biosciences), CD25 (PC61, BD Biosciences), Vβ9 (MR10-2, Biolegend), CD3e (145-2C11, BD Biosciences), CD4 (GK1.5, BD Biosciences), and/or TCRβ (h57-597, eBiosciences) in the presence of live/dead stain (Tonbo Ghost dye in BV510 or APC ef780). Cells were fixed using Foxp3 transcription factor reagent (Tonbo), for 30 minutes at 4° C., washed and intracellular stained with aKi67 (B56, BD Biosciences) and/or Foxp3 (3G3, Tonbo) diluted 1:100 in Fix/Perm buffer (Tonbo) and stained overnight. The next day, cells were washed 2× with perm wash buffer and resuspended in FACs buffer or 0.4% PFA for 15 minutes at 4° C. Cells were resuspended in FACs buffer and Countbright Absolute Counting Beads (Thermo Fisher). Cells were acquired with a Fortessa 1770 flow cytometer and Facs Diva software (BD Biosciences). Data were analyzed using FlowJo software (version 10). ViSNE analysis was performed by gating on total live T cells with default settings of 1000 iterations, 30 perplexity and theta of 0.5 using Cytobank software.

[2] = molecular target: T1, mesothelin (MsIn), murine peptide on …; experiment: cytokine release

binding result [1] | binding result [2] | Binder
recognises |  | B1
 | recognises | B2
